# Experimental data from patent publication US20090175860A1 (Novartis, published 2009).
# Positions count from the first letter of the chain named.
# B1: 04541 (parental anti-cMet Fab antibody) (Fab, V domains shown)
# VH: QVQLQESGPGLVKPGETLSLTCTVSGGSISSSSYYWNWIRQAPGKGLEWIGEIYFGWTYYNPSLKGRVTISVDTSKNQFSLKLSSVTAEDTAVYYCARGYEFHGYTTFDYWGQGTLVTVSS
# VL: DIELTQPPSVSVAPGQTARISCSGDNIGSYYVYWYQQKPGQAPVLVIYDDNDRPSGIPERFSGSNSGNTATLTISGTQAEDEADYYCQSYDFPSIVFGGGTKLTVLG
# notes: carries two C-terminal tags (FLAG and 6xHis)
# B2: 04537 (parental anti-cMet Fab antibody) (Fab, V domains shown)
# VH: QVQLVQSGAEVKKPGESLKISCKGSGYSFSNYWIGWVRQMPGKGLEWMGFIFPDTSYTRYSPSFQGQVTISADKSISTAYLQWSSLKASDTAMYYCARVKLITDYWGQGTLVTVSS
# VL: DIELTQPPSVSVAPGQTARISCSGDSLRSYFVSWYQQKPGQAPVLVIYDDDDRPSGIPERFSGSNSGNTATLTISGTQAEDEADYYCASWDTLSDVEVFGGGTKLTVLG
# notes: as for B1
# B3: 05091 in IgG format (antibody, V domains shown)
# VH: QVQLVQSGAEVKKPGASVKVSCKASGYTFTGYYMNWVRQAPGQGLEWMGIINPWTGNTNYAQKFQGRVTMTRDTSISTAYMELSSLRSEDTAVYYCARDPGFFYYTPSDLWGQGTLVTVSS
# VL: DIELTQPPSVSVAPGQTARISCSGDSIGNKYVHWYQQKPGQAPVLVIYADSDRPSGIPERFSGSNSGNTATLTISGTQAEDEADYYCQSYAHYHDIWVFGGGTKLTVLG
# B4: 05098 in IgG format (antibody, V domains shown)
# VH: QVQLVQSGAEVKKPGSSVKVSCKASGGTFSSYAISWVRQAPGQGLEWMGGIDPFGTANYAQKFQGRVTITADESTSTAYMELSSLRSEDTAVYYCARVYQDVWGQGTLVTVSS
# VL: DIVMTQSPDSLAVSLGERATINCRSSQSILYGINNNFLGWYQQKPGQPPKLLIYWASTRESGVPDRFSGSGSGTDFTLTISSLQAEDVAVYYCLQYSDEPWTFGQGTKVEIKR
# B5: 05185 in IgG format (antibody, V domains shown)
# VH: B4 VH with F54I, G55M, T56G, A57T, N58E
# VL: B4 VL with L94Q, S97A, D98Y, W101N
# B6: 05097 in IgG format (antibody, V domains shown)
# VH: B4 VH
# VL: DIVMTQSPDSLAVSLGERATINCRSSQSILYGINNNFLGWYQQKPGQPPKLLIYWASTRESGVPDRFSGSGSGTDFTLTISSLQAEDVAVYYCQQYAFGWTFGQGTKVEIKR
# B7: 04536 in IgG format (antibody, V domains shown)
# VH: B3 VH
# VL: DIELTQPPSVSVAPGQTARISCSGDSIGNKYVHWYQQKPGQAPVLVIYADSDRPSGIPERFSGSNSGNTATLTISGTQAEDEADYYCQAYDSSMLRVFGGGTKLTVLG
# B8: 04541 in IgG format (antibody, V domains shown)
# VH: B1 VH
# VL: B1 VL
# B9: 04687 in IgG format (antibody, V domains shown)
# VH: B4 VH
# VL: B4 VL with L94Q, S97Y, D98N, E99H, W101H
# B10: 04537 in IgG format (antibody, V domains shown)
# VH: B2 VH
# VL: B2 VL
# B11: 04690 (parental anti-cMet Fab antibody) (Fab, V domains shown)
# VH: QVQLQQSGPGLVKPSQTLSLTCAISGDSVSSNSAAWGWIRQSPGRGLEWLGRIYYRSKWVNDYAVSVKSRITINPDTSKNQFSLQLNSVTPEDTAVYYCARQGAVYPGPYGFDVWGQGTLVTVSS
# VL: DIELTQPPSVSVAPGQTARISCSGDKLGSYFVYWYQQKPGQAPVLVIYDDDNRPSGIPERFSGSNSGNTATLTISGTQAEDEADYYCQSFGISNFYVFGGGTKLTVLG
# notes: as for B1
# B12: 04682 (parental anti-cMet Fab antibody) (Fab, V domains shown)
# VH: QVQLVQSGAEVKKPGESLKISCKGSGYSFTNYGIAWVRQMPGKGLEWMGIIYPSDSYTNYSPSFQGQVTISADKSISTAYLQWSSLKASDTAMYYCARMSYDYQHQAPSMDSWGQGTLVTVSS
# VL: DIVLTQPPSVSGAPGQRVTISCSGSSSNIGSNYVIWYQQLPGTAPKLLIYDDTNRPSGVPDRFSGSKSGTSASLAITGLQSEDEADYYCSTYDNYQAGWVFGGGTKLTVLG
# notes: as for B1
# Biological target: T1, cynomolgus c-Met on CHO cells (cynomolgus, UniProt A0A2K5UM36 25-1381, The natural precursor is cleaved into disulfide-linked alpha and beta subunits. It is given here as one mature chain, following the entry's CHAIN feature.)
# T1 construct: also called cyno c-Met; CHO-cMet cyno
# Assay: flow cytometry, Fab on CHO-cyno c-Met cells
# Description: (§1) In order to further characterize the anti-c-Met antibodies, the affinity to full length human and cynomolgus c-Met is determined. GTL16, CHO cells overexpressing cynomolgus c-Met or rhesus 4 MBr-5 cells are washed, trypsinised, and suspended in PBS containing 3% FCS (3% FCS/PBS) at 4-C. 2-5×10⁵ cells/sample are resuspended in 140 μl of 3% FCS//PBS containing 5 μg/ml of purified anti-cMet Fabs or serial dilutions thereof. As a positive control 5 μg/ml of DO24 (mouse IgG2a), anti-human c-Met is used. The cells are incubated for 30-60 minutes at 4° C. before being pelleted by centrifugation for 2 min at 2000 rpm (716 g) at 4° C. and washed in 200 μl of in chilled 3% FCS/PBS. The cells are again pelleted by centrifugation and the PBS gently removed. Cells are resuspended in 100 μl of goat anti-human IgG (H+L) PE conjugated (Jackson Cat No. 109-116-088) diluted 1:200 in 3% FCS/0.02% NaN₃/PBS; For the positive control goat anti-mouse IgG (H+L)-PE conjugated (Jackson Cat No. 115-116-146) diluted 1:200 in 3% FCS/PBS is used. Samples are incubated in the dark for 30-60 min at 4° C. Following centrifugation and washing in 200 μl of 3% FCS/0.02%/NaN₃/PBS the cells are resuspended in 100 μl of 3% FCS/PBS and assayed using FACS-array or FACS-Calibur.
# T1 sequence (A0A2K5UM36 entry or part of it limits assumed): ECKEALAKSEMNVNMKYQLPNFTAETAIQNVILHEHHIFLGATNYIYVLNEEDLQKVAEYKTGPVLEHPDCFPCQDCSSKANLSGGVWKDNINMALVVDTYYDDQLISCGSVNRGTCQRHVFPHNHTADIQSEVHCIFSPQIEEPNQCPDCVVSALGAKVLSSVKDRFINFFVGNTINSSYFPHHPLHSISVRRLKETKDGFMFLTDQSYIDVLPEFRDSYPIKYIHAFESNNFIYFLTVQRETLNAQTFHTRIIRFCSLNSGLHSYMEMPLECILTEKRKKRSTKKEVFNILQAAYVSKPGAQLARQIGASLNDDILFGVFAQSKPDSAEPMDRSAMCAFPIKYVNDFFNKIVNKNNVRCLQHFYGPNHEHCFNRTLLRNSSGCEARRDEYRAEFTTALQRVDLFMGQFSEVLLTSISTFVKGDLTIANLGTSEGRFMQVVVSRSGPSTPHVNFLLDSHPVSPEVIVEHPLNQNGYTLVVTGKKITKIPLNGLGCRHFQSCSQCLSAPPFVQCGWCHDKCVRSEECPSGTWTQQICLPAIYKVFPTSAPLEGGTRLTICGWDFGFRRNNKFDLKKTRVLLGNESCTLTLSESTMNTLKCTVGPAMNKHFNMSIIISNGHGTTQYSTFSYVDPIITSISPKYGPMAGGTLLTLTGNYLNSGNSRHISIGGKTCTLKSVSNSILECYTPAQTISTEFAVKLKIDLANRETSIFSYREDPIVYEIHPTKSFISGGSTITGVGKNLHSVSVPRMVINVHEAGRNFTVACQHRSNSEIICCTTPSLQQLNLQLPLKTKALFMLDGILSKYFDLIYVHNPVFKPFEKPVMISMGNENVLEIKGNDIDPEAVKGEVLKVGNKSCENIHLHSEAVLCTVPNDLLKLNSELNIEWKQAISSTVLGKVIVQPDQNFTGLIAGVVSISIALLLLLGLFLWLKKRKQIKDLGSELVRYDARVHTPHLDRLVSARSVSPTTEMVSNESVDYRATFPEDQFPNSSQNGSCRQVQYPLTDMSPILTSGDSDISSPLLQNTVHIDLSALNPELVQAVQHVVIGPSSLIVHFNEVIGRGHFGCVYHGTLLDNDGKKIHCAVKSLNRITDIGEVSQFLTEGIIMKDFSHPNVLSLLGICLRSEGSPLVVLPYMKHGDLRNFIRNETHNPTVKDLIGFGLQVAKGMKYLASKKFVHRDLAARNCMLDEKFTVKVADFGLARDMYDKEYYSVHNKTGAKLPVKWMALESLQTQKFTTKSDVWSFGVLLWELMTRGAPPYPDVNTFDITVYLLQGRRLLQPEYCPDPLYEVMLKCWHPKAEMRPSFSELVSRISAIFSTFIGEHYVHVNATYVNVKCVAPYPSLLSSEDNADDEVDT
row,Binder,Kd
1,B1,0.6 nM
2,B2,12.7 nM

# Biological target: rhesus c-Met on 4MBr-5 cells (rhesus)
# Assay: cell-based or functional assay
row,Binder,EC50 [nM] Inhibition of HGF driven proliferation 4MBr-5 in 10% serum
1,B3,1.3 nM
2,B4,0.5 nM
3,B5,0.13 nM
4,B6,1.6 nM

# Biological target: T2, full length human c-Met on cells (human, UniProt P08581 25-1390)
# Assay: cell-based or functional assay
# T2 sequence (P08581 25-1390): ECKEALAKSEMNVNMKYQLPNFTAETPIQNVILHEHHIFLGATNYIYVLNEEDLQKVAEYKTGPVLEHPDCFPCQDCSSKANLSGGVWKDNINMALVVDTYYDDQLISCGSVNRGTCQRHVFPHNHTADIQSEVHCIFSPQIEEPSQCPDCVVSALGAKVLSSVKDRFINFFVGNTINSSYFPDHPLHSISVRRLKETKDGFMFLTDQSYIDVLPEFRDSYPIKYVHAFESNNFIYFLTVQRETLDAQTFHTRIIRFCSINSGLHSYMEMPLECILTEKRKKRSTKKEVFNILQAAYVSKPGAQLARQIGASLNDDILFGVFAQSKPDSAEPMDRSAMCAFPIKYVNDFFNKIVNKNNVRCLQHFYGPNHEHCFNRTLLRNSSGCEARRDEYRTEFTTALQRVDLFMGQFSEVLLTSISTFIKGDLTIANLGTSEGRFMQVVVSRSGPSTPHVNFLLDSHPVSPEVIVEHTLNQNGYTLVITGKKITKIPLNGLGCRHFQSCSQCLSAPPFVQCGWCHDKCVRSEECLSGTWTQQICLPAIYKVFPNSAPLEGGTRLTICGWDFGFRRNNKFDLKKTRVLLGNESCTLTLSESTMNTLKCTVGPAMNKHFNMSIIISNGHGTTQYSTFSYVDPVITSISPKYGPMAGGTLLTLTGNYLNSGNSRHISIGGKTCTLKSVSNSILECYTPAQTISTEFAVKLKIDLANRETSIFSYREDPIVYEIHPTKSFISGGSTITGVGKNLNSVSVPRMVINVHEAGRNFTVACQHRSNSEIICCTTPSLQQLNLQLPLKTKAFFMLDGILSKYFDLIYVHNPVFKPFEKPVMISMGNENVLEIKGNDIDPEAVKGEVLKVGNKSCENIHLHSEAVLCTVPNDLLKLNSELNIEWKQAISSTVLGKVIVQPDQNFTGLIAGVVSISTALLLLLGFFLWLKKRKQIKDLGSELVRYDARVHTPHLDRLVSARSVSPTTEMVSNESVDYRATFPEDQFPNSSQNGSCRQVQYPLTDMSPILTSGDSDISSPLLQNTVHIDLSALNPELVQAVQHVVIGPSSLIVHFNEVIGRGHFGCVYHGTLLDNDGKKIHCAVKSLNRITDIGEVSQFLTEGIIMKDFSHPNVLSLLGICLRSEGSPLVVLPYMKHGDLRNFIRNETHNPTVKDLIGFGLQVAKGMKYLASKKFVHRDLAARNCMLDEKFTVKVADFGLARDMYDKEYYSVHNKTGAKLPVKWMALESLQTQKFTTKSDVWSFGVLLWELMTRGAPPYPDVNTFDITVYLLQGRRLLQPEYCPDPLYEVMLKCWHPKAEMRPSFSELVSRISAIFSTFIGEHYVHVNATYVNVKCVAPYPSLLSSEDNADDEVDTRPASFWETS
row,Binder,EC50 [nM] NCI-H441 Migration IgG
1,B7,0.61 nM
2,B8,0.27 nM
3,B9,1.68 nM
4,B10,0.14 nM

# Biological target: rhesus c-Met on 4MBr-5 cells (rhesus)
# Assay: cell-based or functional assay
# Remark: another data set of the same source
row,Binder,EC50 [nM] 4Mbr-5 Proliferation IgG
1,B7,4 nM
2,B8,200 nM
3,B9,6 nM
4,B10,150 nM

# Biological target: T3, recombinant human c-Met (human, UniProt P08581 25-932, limits assumed)
# T3 construct: Soluble recombinant protein: immobilised on the CM5 chip in Biacore, in solution in the equilibrium titration; The precursor is cleaved into disulfide-linked alpha and beta subunits; also called Hepatocyte Growth Factor Receptor
# Assay: SPR (BIAcore), c-Met amine-coupled on CM5 chip, Fab 16-500 nM as analyte
# Description: (§2) Using these clones, kinetic SPR analysis is performed on a CM5 chip (Biacore, Sweden) which had been coated with a density of ˜400 RU of either recombinant human c-Met, in 10 mM Na-acetate pH 4.5 using standard EDC-NHS amine coupling chemistry. […] PBS (136 mM NaCl, 2.7 mM KCl, 10 mM Na2HPO4 , 1.76 mM KH2PO4 pH 7.4) is used as the running buffer. The Fab preparations are applied in concentration series of 16-500 nM at a flow rate of 20 μl/min. Association phase is set to 60 s and dissociation phase to 120 s.
# T3 sequence (P08581 25-932 limits assumed): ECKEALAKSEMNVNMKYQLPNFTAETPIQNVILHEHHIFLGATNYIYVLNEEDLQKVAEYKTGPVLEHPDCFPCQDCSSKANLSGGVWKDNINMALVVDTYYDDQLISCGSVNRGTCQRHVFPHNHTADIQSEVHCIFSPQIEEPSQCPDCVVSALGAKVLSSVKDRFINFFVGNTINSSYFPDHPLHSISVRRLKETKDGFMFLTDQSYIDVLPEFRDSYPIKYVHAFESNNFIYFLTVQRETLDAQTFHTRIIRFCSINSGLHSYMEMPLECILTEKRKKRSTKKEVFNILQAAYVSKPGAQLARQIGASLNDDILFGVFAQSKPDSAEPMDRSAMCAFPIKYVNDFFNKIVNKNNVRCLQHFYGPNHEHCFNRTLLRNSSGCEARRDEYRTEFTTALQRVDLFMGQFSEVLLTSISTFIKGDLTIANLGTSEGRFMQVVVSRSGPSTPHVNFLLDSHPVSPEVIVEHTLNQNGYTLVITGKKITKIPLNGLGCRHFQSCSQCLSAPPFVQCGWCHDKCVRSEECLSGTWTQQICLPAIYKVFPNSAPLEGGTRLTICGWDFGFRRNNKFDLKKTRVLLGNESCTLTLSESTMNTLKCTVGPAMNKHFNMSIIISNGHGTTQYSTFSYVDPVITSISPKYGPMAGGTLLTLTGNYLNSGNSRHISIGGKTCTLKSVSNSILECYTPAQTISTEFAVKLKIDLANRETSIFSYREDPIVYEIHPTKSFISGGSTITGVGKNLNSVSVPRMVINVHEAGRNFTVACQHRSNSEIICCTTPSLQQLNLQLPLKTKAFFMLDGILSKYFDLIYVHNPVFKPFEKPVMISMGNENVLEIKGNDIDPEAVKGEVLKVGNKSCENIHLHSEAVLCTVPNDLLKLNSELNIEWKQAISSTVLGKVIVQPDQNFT
row,Binder,Kd
1,B11,66 nM
2,B1,2.6 nM
3,B12,11.2 nM
4,B2,1.7 nM

# Biological target: T3, recombinant human c-Met
# Assay: SPR (BIAcore), Fab on immobilised human c-Met
# Description: as §2
row,Binder,Kd
1,B1,2.6 nM
2,B2,1.7 nM

# Biological target: T2, full length human c-Met on cells
# Assay: cell-based or functional assay
# Remark: another data set of the same source
row,Binder,EC50 [nM] Inhibition of HGF stimulated c-Met autophosphorylation in A549
1,B3,0.193 nM
2,B4,0.419 nM
3,B5,0.219 nM
4,B6,0.166 nM

# Biological target: T2, full length human c-Met on cells
# Assay: flow cytometry, Fab on GTL-16 cells
# Description: as §1
row,Binder,Kd
1,B1,1.7 nM
2,B2,1.5 nM

# Biological target: T2, full length human c-Met on cells
# Assay: flow cytometry, Fab titration on GTL-16 cells
# Description: as §1
row,Binder,Kd
1,B11,1.1 nM
2,B1,0.5 nM
3,B12,1.2 nM
4,B2,2.6 nM

# Biological target: T2, full length human c-Met on cells
# Assay: cell-based or functional assay
# Remark: another data set of the same source
row,Binder,EC50 [nM] Inhibition of HGF driven migration NCI-H441
1,B7,0.61 nM
2,B8,0.27 nM
3,B9,1.68 nM
4,B10,0.14 nM

# Biological target: rhesus c-Met on 4MBr-5 cells (rhesus)
# Assay: cell-based or functional assay
# Remark: another data set of the same source
row,Binder,EC50 [nM] Inhibition of HGF driven proliferation 4MBr-5
1,B7,4 nM
2,B8,200 nM
3,B9,6 nM
4,B10,150 nM

# Biological target: T2, full length human c-Met on cells
# Assay: cell-based or functional assay
# Remark: another data set of the same source
row,Binder,EC50 [nM] Inhibition of HGF driven migration NCI-H441 in 1% serum
1,B3,0.61 nM
2,B4,0.73 nM
3,B5,1.2 nM
4,B6,0.76 nM

# Biological target: T1, cynomolgus c-Met on CHO cells
# Assay: flow cytometry, Fab titration on CHO cells overexpressing cynomolgus c-Met
# Description: as §1
row,Binder,Kd
1,B12,0.3 nM

# Biological target: T4, rhesus c-Met on 4MBr-5 cells (rhesus)
# T4 construct: whole, on cells
# Assay: flow cytometry, Fab titration on rhesus 4MBr-5 cells
# Description: as §1
row,Binder,Kd
1,B11,0.1 nM
2,B1,0.1 nM
3,B12,0.3 nM
4,B2,0.1 nM
